Laboratory results published in the supplement of paper PMC7877785.
± gives the uncertainty stated by the source.

Assay: self-splicing fitness, log relative to wild type (ln ratio); higher = more splicing; Tetrahymena group I intron in knt gene, E. coli kanamycin selection, DiMSum; sequences stand for … in CUCUCU…GGAGGGAAAAGUUAUCAGGCAUGCACCUGGUAGCUAGUCUUUAAACCAAUAGAUUGCAUCGGUUUAAAAGGCAAGACCGUCAAAUUGCGGGAAAGGGGUCAACAGCCGUUCAGUACCAAGUCUCAGGGGAAACUUUGAGAUGGCCUUGCAAAGGGUAUGGUAAUAAGCUGACGGACAUGGUCCUAACCACGCAGCCAAGUCCUAAGUCAACAGAUCUUCUGUUGAUAUGGAUGCAGUUCACAGACUAAAUGUCGGUCGGGGAAGAUGUAUUCUUCUCAUAAGAUAUAGUCGGACCUCUCCUUAAUGGGAGCUAGCGGAUGAAGUGAUGCAACACUGGAGCCGCUGGGAACUAAUUUGUAUGCGAAAGUAUAUUGAUUAGUUUUGGAGUACUCGUGGUCG
Outline: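 Colonies from six replicate transformations of E. coli BL21(DE3) were pooled and amplicon-sequenced on an Illumina HiSeq 2500. The library placed an intron with all eight P1ex-region nucleotides randomised inside the knt kanamycin-resistance gene on pET-22b(+), and cells grew overnight at 37°C or 30°C on LB agar with or without 25 μg/mL kanamycin (plus 100 μg/mL carbenicillin, 50 μM IPTG, 0.2% rhamnose). Fitness is the DiMSum error-weighted combination of wild-type-normalised replicate fold changes, kanamycin versus none.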

| Sequence | self-splicing fitness (ln) (30 °C) | self-splicing fitness (ln) (37 °C) |
| --- | --- | --- |
| GCGCAGCAAUAUUACGUGCC | -3.26 ± 0.18 | -2.75 ± 0.29 |
| GCGCAGCAAUAUUACGUGCG | -4.36 ± 0.28 | -2.7 ± 0.21 |
| GCGCAGCAAUAUUACGUUAU | -0.78 ± 0.048 | -0.0311 ± 0.064 |
| GCGGAGCAAUAUUACGAACU |  | -0.902 ± 0.47 |
| GCGGAGCAAUAUUACGAAGU | -3.58 ± 0.43 | -2.08 ± 0.36 |
| GCGGAGCAAUAUUACGAAUU |  | -1.1 ± 0.33 |
| GCGGAGCAAUAUUACGAGAC | -2.85 ± 0.38 |  |
| GCGGAGCAAUAUUACGAGCU | -2.02 ± 0.27 | 0.307 ± 0.24 |
| GCGGAGCAAUAUUACGAUGC | -1.81 ± 0.37 |  |
| GCGGAGCAAUAUUACGAUUA | -2.93 ± 0.22 | -1.73 ± 0.23 |
| GCGGAGCAAUAUUACGCAGU | -3.68 ± 0.45 | -1.79 ± 0.39 |
| GCGGAGCAAUAUUACGCGCA | -2.93 ± 0.3 | -0.701 ± 0.17 |
| GCGGAGCAAUAUUACGCGUA | -2.77 ± 0.29 | -1.53 ± 0.15 |
| GCGGAGCAAUAUUACGGCAA |  | -1.74 ± 0.18 |
| GCGGAGCAAUAUUACGGGGA | -2.69 ± 0.39 | -3.38 ± 0.42 |
| GCGGAGCAAUAUUACGGUUU |  | -2.53 ± 0.39 |
| GCGGAGCAAUAUUACGUAGG | -4.18 ± 0.34 | -0.489 ± 0.15 |
| GCGGAGCAAUAUUACGUGCA | -2.52 ± 0.29 | -0.813 ± 0.18 |
| GCGGAGCAAUAUUACGUUUA |  | -2.33 ± 0.37 |
| GCGGAGCAAUAUUACGUUUG | -2.86 ± 0.17 | -2.48 ± 0.27 |
| GCGUAGCAAUAUUACGAACC |  | -1.63 ± 0.36 |
| GCGUAGCAAUAUUACGACCG | -1.5 ± 0.16 | -0.0305 ± 0.2 |
| GCGUAGCAAUAUUACGAGAU | -2.22 ± 0.12 | -2.25 ± 0.17 |
| GCGUAGCAAUAUUACGAGUU | -2.87 ± 0.092 | -0.803 ± 0.097 |
| GCGUAGCAAUAUUACGAUUG | -2.26 ± 0.18 | -1.98 ± 0.21 |
| GCGUAGCAAUAUUACGCACA |  | -1.71 ± 0.47 |
| GCGUAGCAAUAUUACGCCUU | -3.7 ± 0.33 | -1.3 ± 0.21 |

| Sequence | self-splicing fitness (ln) (30 °C) | self-splicing fitness (ln) (37 °C) |
| --- | --- | --- |
| GCGUAGCAAUAUUACGCGAC | -2.5 ± 0.11 | -1.42 ± 0.12 |
| GCGUAGCAAUAUUACGCUUU | -3.68 ± 0.22 | -3.98 ± 0.19 |
| GCGUAGCAAUAUUACGGAAG | -3.56 ± 0.31 | -1.98 ± 0.33 |
| GCGUAGCAAUAUUACGGCCC | 0.00127 ± 0.32 | -2.25 ± 0.39 |
| GCGUAGCAAUAUUACGGGUC | -3.34 ± 0.29 | -1.54 ± 0.21 |
| GCGUAGCAAUAUUACGGUGG | -4.1 ± 0.31 | -3.39 ± 0.39 |
| GCGUAGCAAUAUUACGUAUC | -3.35 ± 0.38 | -0.739 ± 0.2 |
| GCGUAGCAAUAUUACGUGAA | -2.92 ± 0.15 | -1.49 ± 0.13 |
| GCGUAGCAAUAUUACGUGCG | -4.01 ± 0.17 | -1.62 ± 0.14 |
| GCGUAGCAAUAUUACGUUUA | -2.16 ± 0.15 | -2.13 ± 0.15 |
| GCUAAGCAAUAUUACGAAUG | -0.647 ± 0.082 | -0.433 ± 0.11 |
| GCUAAGCAAUAUUACGAAUU | -2.39 ± 0.18 | -0.0664 ± 0.13 |
| GCUAAGCAAUAUUACGACUA | -1.7 ± 0.19 | -0.865 ± 0.23 |
| GCUAAGCAAUAUUACGAGGU | -2.03 ± 0.19 | -1.51 ± 0.15 |
| GCUAAGCAAUAUUACGAGUG | -1.09 ± 0.048 | -0.811 ± 0.06 |
| GCUAAGCAAUAUUACGAGUU | -1.33 ± 0.082 | -0.818 ± 0.11 |
| GCUAAGCAAUAUUACGCAAA | -2.6 ± 0.26 | -0.986 ± 0.17 |
| GCUAAGCAAUAUUACGCAGA | -2.53 ± 0.26 | -0.61 ± 0.21 |
| GCUAAGCAAUAUUACGCAUC | -0.687 ± 0.13 | -1.06 ± 0.21 |
| GCUAAGCAAUAUUACGCGGA | -2.73 ± 0.2 | -1.1 ± 0.15 |
| GCUAAGCAAUAUUACGCGUG | -1.88 ± 0.092 | -1.44 ± 0.12 |
| GCUAAGCAAUAUUACGCGUU | -1.23 ± 0.083 | -0.649 ± 0.1 |
| GCUAAGCAAUAUUACGCUAU | -1.91 ± 0.14 | -2.08 ± 0.17 |
| GCUAAGCAAUAUUACGCUGU |  | -3.18 ± 0.47 |
| GCUAAGCAAUAUUACGGAAU | -1.68 ± 0.12 | -0.857 ± 0.13 |
| GCUAAGCAAUAUUACGGCAG | -3.28 ± 0.34 | -2.85 ± 0.34 |
| GCUAAGCAAUAUUACGGCGA | -0.936 ± 0.1 | -0.247 ± 0.13 |

| Sequence | self-splicing fitness (ln) (30 °C) | self-splicing fitness (ln) (37 °C) |
| --- | --- | --- |
| GCUAAGCAAUAUUACGGGUA | -1.32 ± 0.097 | 0.109 ± 0.09 |
| GCUAAGCAAUAUUACGGUCA | -0.887 ± 0.13 | -0.914 ± 0.15 |
| GCUAAGCAAUAUUACGGUGC | -3.38 ± 0.22 | -2.6 ± 0.39 |
| GCUAAGCAAUAUUACGUAAG | -0.616 ± 0.11 | 0.0143 ± 0.15 |
| GCUAAGCAAUAUUACGUACG | -1.67 ± 0.1 | -1.13 ± 0.1 |
| GCUAAGCAAUAUUACGUAGA | -0.845 ± 0.055 | -0.223 ± 0.069 |
| GCUAAGCAAUAUUACGUAGG | -1.34 ± 0.059 | -0.249 ± 0.087 |
| GCUAAGCAAUAUUACGUCAC | -3.38 ± 0.44 | -2.35 ± 0.24 |
| GCUAAGCAAUAUUACGUCCU | -0.847 ± 0.14 | 0.223 ± 0.17 |
| GCUAAGCAAUAUUACGUGAA | -0.92 ± 0.059 | -0.304 ± 0.074 |
| GCUAAGCAAUAUUACGUGCU | -2.4 ± 0.14 | -2.13 ± 0.25 |
| GCUAAGCAAUAUUACGUGGC | -2.87 ± 0.23 | -2.46 ± 0.41 |
| GCUAAGCAAUAUUACGUUAG | -2.7 ± 0.28 | -2.2 ± 0.28 |
| GCUAAGCAAUAUUACGUUCG | -0.791 ± 0.097 | -0.25 ± 0.17 |
| GCUAAGCAAUAUUACGUUGA | -1.97 ± 0.14 | -0.945 ± 0.14 |
| GCUCAGCAAUAUUACGAACU | -0.913 ± 0.068 | -0.48 ± 0.079 |
| GCUCAGCAAUAUUACGAAGA | -0.583 ± 0.12 | -0.863 ± 0.14 |
| GCUCAGCAAUAUUACGAAUG | -1.59 ± 0.12 | -0.636 ± 0.14 |
| GCUCAGCAAUAUUACGAUCG | -1.02 ± 0.1 | 0.77 ± 0.13 |
| GCUCAGCAAUAUUACGCCAC |  | -1.97 ± 0.47 |
| GCUCAGCAAUAUUACGCCGC | -3.66 ± 0.44 |  |
| GCUCAGCAAUAUUACGCGGU | -3.01 ± 0.15 | -2.22 ± 0.21 |
| GCUCAGCAAUAUUACGCUAU | -1.61 ± 0.11 | -0.658 ± 0.097 |
| GCUCAGCAAUAUUACGCUCC | -1.05 ± 0.15 | 0.283 ± 0.26 |
| GCUCAGCAAUAUUACGGACC | -0.753 ± 0.1 | -0.186 ± 0.13 |
